What follows are sequences tested on Escherichia coli TOP10 (assay: shrunken log2 fold change of peptide-encoding DNA abundance (4.5 h post-induction vs induction); higher = less antimicrobial activity (less host growth inhibition)). Settings: time post-induction: 4.5 h; library: site-saturation at positions 5, 18, 19, 20.
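Also: peptides expressed intracellularly from a pBAD plasmid library in pooled LB shake-flask culture, induced with 0.3% L-arabinose, DNA abundance read by NGS, three biological replicates, DESeq2 with apeglm shrinkage.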

| Sequence | shrunken log2 fold change |
| --- | --- |
| RRIRFRPPRLPRPRPRPNLHPRP | -0.235 |
| RRIRARPPRLPRPRPRPWIPPRP | -0.161 |
| RRIRVRPPRLPRPRPRPKQFPRP | 0.109 |
| RRIRIRPPRLPRPRPRPYDCPRP | 0.0019 |
| RRIRFRPPRLPRPRPRPLETPRP | 0.105 |
| RRIRDRPPRLPRPRPRPRFVPRP | 0.0484 |
| RRIRQRPPRLPRPRPRPTLLPRP | -0.0944 |
| RRIRRRPPRLPRPRPRPLGMPRP | 0.471 |
| RRIRHRPPRLPRPRPRPCCEPRP | -0.366 |
| RRIRGRPPRLPRPRPRPTHRPRP | 0.454 |
| RRIRQRPPRLPRPRPRPIANPRP | -0.0128 |
| RRIRYRPPRLPRPRPRPRWHPRP | -0.124 |
| RRIRFRPPRLPRPRPRPSEKPRP | 0.0358 |
| RRIRWRPPRLPRPRPRPYCQPRP | -0.694 |
| RRIRMRPPRLPRPRPRPMIDPRP | -0.0842 |
| RRIRCRPPRLPRPRPRPQQDPRP | -0.046 |
| RRIRRRPPRLPRPRPRPPFRPRP | 0.631 |
| RRIRKRPPRLPRPRPRPRHLPRP | 0.218 |
| RRIRPRPPRLPRPRPRPKFQPRP | 0.103 |
| RRIRNRPPRLPRPRPRPCRVPRP | -0.0128 |
| RRIRKRPPRLPRPRPRPWSLPRP | 0.0414 |
| RRIRQRPPRLPRPRPRPRSKPRP | 0.185 |

| Sequence | shrunken log2 fold change |
| --- | --- |
| RRIRKRPPRLPRPRPRPIDWPRP | 0.29 |
| RRIRKRPPRLPRPRPRPRYAPRP | -0.129 |
| RRIRLRPPRLPRPRPRPYRWPRP | -0.0173 |
| RRIRKRPPRLPRPRPRPLKNPRP | 0.211 |
| RRIRSRPPRLPRPRPRPNFSPRP | -0.112 |
| RRIRIRPPRLPRPRPRPGVCPRP | 0.0702 |
| RRIRLRPPRLPRPRPRPKKAPRP | -0.0389 |
| RRIRKRPPRLPRPRPRPLQQPRP | 0.26 |
| RRIRARPPRLPRPRPRPHKMPRP | 0.118 |
| RRIRNRPPRLPRPRPRPDEHPRP | -0.415 |
| RRIRERPPRLPRPRPRPLETPRP | -0.0311 |
| RRIRMRPPRLPRPRPRPWDAPRP | 0.228 |
| RRIRMRPPRLPRPRPRPNPTPRP | 0.849 |
| RRIRVRPPRLPRPRPRPFSQPRP | -0.0697 |
| RRIRNRPPRLPRPRPRPFSVPRP | -0.678 |
| RRIRNRPPRLPRPRPRPLNDPRP | -0.0316 |
| RRIRTRPPRLPRPRPRPYPEPRP | -0.817 |
| RRIRVRPPRLPRPRPRPEWVPRP | 0.23 |
| RRIRTRPPRLPRPRPRPTKAPRP | 0.249 |
| RRIRMRPPRLPRPRPRPQIKPRP | -0.0128 |
| RRIRERPPRLPRPRPRPRRNPRP | -0.0448 |
| RRIRRRPPRLPRPRPRPCQHPRP | -0.153 |

| Sequence | shrunken log2 fold change |
| --- | --- |
| RRIRERPPRLPRPRPRPWNNPRP | -0.653 |
| RRIRYRPPRLPRPRPRPWIFPRP | -0.505 |
| RRIRPRPPRLPRPRPRPHDFPRP | -0.145 |
| RRIRGRPPRLPRPRPRPKLQPRP | 0.991 |
| RRIRSRPPRLPRPRPRPRKAPRP | 0.0188 |
| RRIRLRPPRLPRPRPRPKLWPRP | 0.296 |
| RRIRTRPPRLPRPRPRPYKLPRP | -0.215 |
| RRIRQRPPRLPRPRPRPSSKPRP | -0.623 |
| RRIRGRPPRLPRPRPRPMPPPRP | 1.23 |
| RRIRSRPPRLPRPRPRPGSGPRP | 0.32 |
| RRIRYRPPRLPRPRPRPHQWPRP | -0.649 |
| RRIRIRPPRLPRPRPRPYVCPRP | 0.0199 |
| RRIRYRPPRLPRPRPRPCTHPRP | -1.23 |
| RRIRQRPPRLPRPRPRPDTVPRP | -0.171 |
| RRIRCRPPRLPRPRPRPCNWPRP | -0.141 |
| RRIRSRPPRLPRPRPRPVTDPRP | 0.102 |
| RRIRKRPPRLPRPRPRPDEVPRP | 1.1 |
| RRIRDRPPRLPRPRPRPVADPRP | 0.22 |
| RRIRMRPPRLPRPRPRPSHLPRP | -0.123 |
| RRIRNRPPRLPRPRPRPNNYPRP | -1.01 |
| RRIRMRPPRLPRPRPRPHTAPRP | -0.000764 |
| RRIRRRPPRLPRPRPRPGPRPRP | 0.917 |

| Sequence | shrunken log2 fold change |
| --- | --- |
| RRIRCRPPRLPRPRPRPARCPRP | 0.477 |
| RRIRQRPPRLPRPRPRPLTDPRP | 0.132 |
| RRIRIRPPRLPRPRPRPALPPRP | -0.0671 |
| RRIRDRPPRLPRPRPRPWMPPRP | -0.11 |
| RRIRWRPPRLPRPRPRPGDAPRP | 0.418 |
| RRIRWRPPRLPRPRPRPLIPPRP | -0.327 |
| RRIRKRPPRLPRPRPRPILDPRP | 0.15 |
| RRIRLRPPRLPRPRPRPLWIPRP | -0.399 |
| RRIRVRPPRLPRPRPRPCWLPRP | -0.0153 |
| RRIRQRPPRLPRPRPRPVGNPRP | -0.108 |
| RRIRGRPPRLPRPRPRPFACPRP | 0.39 |
| RRIRIRPPRLPRPRPRPFCSPRP | -0.426 |
| RRIRQRPPRLPRPRPRPNYRPRP | 0.0444 |
| RRIRQRPPRLPRPRPRPVDFPRP | 0.0196 |
| RRIRTRPPRLPRPRPRPFNMPRP | -0.692 |
| RRIRTRPPRLPRPRPRPSLPPRP | -0.0317 |
| RRIRMRPPRLPRPRPRPPRIPRP | 0.226 |
| RRIRLRPPRLPRPRPRPYYDPRP | -0.379 |
| RRIRRRPPRLPRPRPRPFSRPRP | 0.18 |
| RRIRCRPPRLPRPRPRPMHCPRP | -0.107 |
| RRIRWRPPRLPRPRPRPTDLPRP | 0.0776 |
| RRIRKRPPRLPRPRPRPWNAPRP | 0.0384 |

| Sequence | shrunken log2 fold change |
| --- | --- |
| RRIRRRPPRLPRPRPRPTGGPRP | 0.296 |
| RRIRQRPPRLPRPRPRPIRKPRP | -0.0469 |
| RRIRERPPRLPRPRPRPGAPPRP | 0.301 |
| RRIRFRPPRLPRPRPRPHDYPRP | -0.323 |
| RRIRLRPPRLPRPRPRPLIPPRP | -0.41 |
| RRIRERPPRLPRPRPRPRSLPRP | -0.0254 |
| RRIRNRPPRLPRPRPRPLDWPRP | -0.0554 |
| RRIRVRPPRLPRPRPRPAMFPRP | -0.0685 |
| RRIRQRPPRLPRPRPRPISDPRP | 0.0109 |
| RRIRYRPPRLPRPRPRPYIFPRP | -0.322 |
| RRIRNRPPRLPRPRPRPFTNPRP | 0.00408 |
| RRIRKRPPRLPRPRPRPHCHPRP | 0.0986 |
| RRIRQRPPRLPRPRPRPNAWPRP | 0.0879 |
| RRIRRRPPRLPRPRPRPIFFPRP | 0.261 |
| RRIRHRPPRLPRPRPRPHILPRP | -0.084 |
| RRIRQRPPRLPRPRPRPYNHPRP | -0.047 |
| RRIRYRPPRLPRPRPRPHRHPRP | -0.615 |
| RRIRQRPPRLPRPRPRPVGTPRP | -0.0913 |
| RRIRVRPPRLPRPRPRPCGIPRP | 0.0878 |
| RRIRFRPPRLPRPRPRPVPLPRP | -0.118 |
| RRIRGRPPRLPRPRPRPPLPPRP | 1.01 |
